Reference: PMC3722578 (FEBS Open Bio, 2013)

Biological target: the molecule itself
Test: SEC

B1: PKD1 domain from Vibrio cholerae metalloprotease PrtV (residues Glu755-Asn839) (domain or fragment)
chain: GAMENIAPVARFELKVEGLSVMSQNTSSDSDGNIVSYLWDFGNGQTSTEAAPTWSYTKAGSYSVTLTVTDDKGDSDTHQQTIKVDTPN
stoichiometry N: 2
